The target in one series is T1, MORC2 aspartate mutant (Homo sapiens, UniProt Q9Y6X9 1-1032, K704D;R707D;K713D;K716D;K721D;K722D;R754D;R755D;K756D;R758D;K760D;R761D).
T1 sequence: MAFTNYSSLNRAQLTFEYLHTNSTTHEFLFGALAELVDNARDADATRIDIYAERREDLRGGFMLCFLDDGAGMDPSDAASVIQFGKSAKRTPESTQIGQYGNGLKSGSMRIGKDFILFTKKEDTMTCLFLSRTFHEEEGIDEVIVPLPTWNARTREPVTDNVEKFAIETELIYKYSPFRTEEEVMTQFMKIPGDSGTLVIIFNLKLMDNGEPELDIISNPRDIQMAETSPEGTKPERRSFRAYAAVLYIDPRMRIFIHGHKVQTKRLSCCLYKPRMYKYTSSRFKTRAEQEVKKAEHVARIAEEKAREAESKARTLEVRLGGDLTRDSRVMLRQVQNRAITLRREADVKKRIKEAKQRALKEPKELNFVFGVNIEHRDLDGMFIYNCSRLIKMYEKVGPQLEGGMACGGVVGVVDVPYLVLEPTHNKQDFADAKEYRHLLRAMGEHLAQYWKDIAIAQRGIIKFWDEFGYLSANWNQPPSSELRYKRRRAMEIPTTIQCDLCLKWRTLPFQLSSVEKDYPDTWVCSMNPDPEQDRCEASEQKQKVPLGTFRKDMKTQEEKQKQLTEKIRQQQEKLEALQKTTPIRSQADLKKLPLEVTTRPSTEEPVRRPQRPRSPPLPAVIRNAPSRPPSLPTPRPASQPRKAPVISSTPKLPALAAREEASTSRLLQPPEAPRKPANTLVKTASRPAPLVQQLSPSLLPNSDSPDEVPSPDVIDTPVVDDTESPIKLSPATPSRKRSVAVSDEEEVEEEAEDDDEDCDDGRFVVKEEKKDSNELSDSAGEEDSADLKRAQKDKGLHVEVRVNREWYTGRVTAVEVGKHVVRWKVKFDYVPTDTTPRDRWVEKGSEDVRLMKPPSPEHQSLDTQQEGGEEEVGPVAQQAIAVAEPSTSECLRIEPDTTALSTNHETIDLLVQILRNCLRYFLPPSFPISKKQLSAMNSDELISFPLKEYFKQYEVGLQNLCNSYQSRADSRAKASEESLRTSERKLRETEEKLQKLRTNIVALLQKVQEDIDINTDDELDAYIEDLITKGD
Description: fluorescence anisotropy; apo; FA/EMSA: 50 mM NaCl, 3 mM MgCl2, 20 mM Na-HEPES pH 7.4, 1 mM TCEP, 10% glycerol, 0.025 mM ZnCl2, 50 ug/ml BSA, room temperature; 1 nM nucleic acid (FA) or 20 nM DNA (EMSA). To be noted: protein: recombinant; tags: tag removed by TEV; chain copies: 2; label: 5'-6-FAM; blunt. For orientation: In fluorescence polarisation assays a small probe gives low polarisation when free and higher when bound to something large.

The next series concerns the target T2, MORC2 alanine mutant (Homo sapiens, UniProt Q9Y6X9 1-1032, K704A;R707A;K713A;K716A;K721A;K722A;R754A;R755A;K756A;R758A;K760A;R761A).
T2 sequence: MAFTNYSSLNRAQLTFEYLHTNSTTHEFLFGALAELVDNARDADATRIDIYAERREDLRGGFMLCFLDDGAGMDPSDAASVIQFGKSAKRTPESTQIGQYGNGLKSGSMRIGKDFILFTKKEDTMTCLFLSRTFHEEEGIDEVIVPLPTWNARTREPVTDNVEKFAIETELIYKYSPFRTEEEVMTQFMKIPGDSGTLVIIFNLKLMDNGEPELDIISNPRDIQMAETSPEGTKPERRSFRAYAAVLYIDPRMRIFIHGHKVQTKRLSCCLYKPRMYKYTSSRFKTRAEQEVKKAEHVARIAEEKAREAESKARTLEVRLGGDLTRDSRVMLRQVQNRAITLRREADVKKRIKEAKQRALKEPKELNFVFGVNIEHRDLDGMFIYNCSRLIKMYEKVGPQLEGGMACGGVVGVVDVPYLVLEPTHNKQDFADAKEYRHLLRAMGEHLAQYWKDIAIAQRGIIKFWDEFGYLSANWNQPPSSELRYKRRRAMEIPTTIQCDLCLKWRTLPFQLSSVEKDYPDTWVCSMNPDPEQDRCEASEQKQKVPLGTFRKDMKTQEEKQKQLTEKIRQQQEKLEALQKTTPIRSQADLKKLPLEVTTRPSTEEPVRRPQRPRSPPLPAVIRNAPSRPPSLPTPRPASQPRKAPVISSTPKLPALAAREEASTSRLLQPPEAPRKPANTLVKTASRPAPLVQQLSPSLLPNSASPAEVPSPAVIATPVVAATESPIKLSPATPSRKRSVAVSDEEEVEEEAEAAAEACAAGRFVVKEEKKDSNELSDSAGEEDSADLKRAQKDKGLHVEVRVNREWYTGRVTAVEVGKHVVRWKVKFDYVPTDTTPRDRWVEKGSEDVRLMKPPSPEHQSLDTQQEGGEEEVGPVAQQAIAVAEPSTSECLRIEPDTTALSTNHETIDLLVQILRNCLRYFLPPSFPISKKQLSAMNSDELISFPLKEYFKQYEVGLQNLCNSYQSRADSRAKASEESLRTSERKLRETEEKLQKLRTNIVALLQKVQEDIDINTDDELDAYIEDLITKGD
Described as above. To be noted: protein: recombinant; tags: tag removed by TEV; chain copies: 2; label: 5'-6-FAM; blunt.

B1: Random 35mer dsDNA (dsDNA)
DNA 1: ATAGGGTCCATCAGAATTCGGATGAACTCGGTGTG
DNA 2: CACACCGAGTTCATCCGAATTCTGATGGACCCTAT
As usually defined, the Kd is the concentration at which binding is half-saturated. As to B1, the dissociation constant (Kd) with MORC2 aspartate mutant was found to be 380 ± 120 nM; in the series with MORC2 alanine mutant, 350 ± 60 nM.
